Drawing on patent US12226476B2, “Helper epitope peptide and application thereof” (CHINA PHARMACEUTICAL UNIVERSITY, priority 2018, dated 2025), this text covers antibody titers for two molecules.

Non-standard residues stand in square brackets, D forms with d. Phe(4-NO2) = N[C@@H](Cc1ccc([N+](=O)[O-])cc1)C(=O)O

One test has as its system FR-α. Description: Antibody titer in serum of immunized mice, indirect ELISA. The settings on record: FIG. 15; compared with the FR-α group and the FR-α-PADRE group; mice immunized subcutaneously, 50 μg, Freund's adjuvant. The test is classed as in vivo. Here is the method:
(§1) The protocol is as follows: • (1) The helper epitope was connected to individual antigens or antigen epitope with the linking peptide to construct multiple fusion antigens. The sequence of the linking peptide is GPSL (i.e. Gly-Pro-Ser-Leu) (SEQ ID NO:51). • (2) The fusion antigens from (1) were emulsified adequately with complete Freund's adjuvant of the same volume. Then to immunize mice via subcutaneous injection with the emulsion at the dose of 50 μg per mouse. The strains of experimental mice including C57, Fvb and Balb/C. After 7 days and 14 days of first immunization, the fusion antigens from (1) were emulsified adequately with incomplete Freund's adjuvant of the same volume and then to immunize mice via subcutaneous injection with the emulsion at the dose of 50 μg per mouse. • (3) There are two detection methods. One is to obtain the orbital blood of immunized mice on 7, 14, 21 and 28 day respectively, centrifuge the whole blood to get the serum. Then the antibody titer is detected by indirect ELISA. The other one is: one week after the last immunization, the mice are killed to get the spleen. PBMC (peripheral blood mononuclear cells) are isolated, and the CTL-mediated cytotoxicity is detected by LDH (lactate dehydrogenase) kit.
(§2) The first step was to construct the fusion antigen. According to each fusion antigen, C57BL/6 female mice aged 6-8 weeks were randomly divided into three groups with 6 mice in each group. They were PBS group, existing antigen or antigen epitope group, antigen-PADRE or antigen epitope-PADRE group, and vaccine group containing fusion antigen.
(§3) In the second step, using fusion antigen to immunize mice via subcutaneous injection for 3 times […] 50 μg each time. Mixed with Freund's adjuvant of the same volume.
(§4) Method 1: The whole blood was collected every week after immunization and centrifugated at 6000 rpm for 20 min to obtain the serum for a total of 4 weeks. Antibody titers were detected by indirect ELISA as follows: • (1) Coating: the existing antigen or antigen epitope was diluted to 5 μg/mL with coating solution. Then the 100 μL mixed solution was added into each well of enzyme immunoassay test strip, and incubated in 37° C. incubator for 2 h; • (2) use PBST to wash each well 5 times for 5 min each time; • (3) Sealing: 150 μL locking solution was added to each well of the enzyme immunoassay test strip and incubated at 4° C. overnight. • (4) Repeat step (2); • (5) Incubation first antibody: the collected mouse serum was diluted with antibody diluent. Then the 100 μL mixed solution was added into each well, and incubated at 37° C. for 2 h; • (6) Repeat step (2); • (7) Incubating secondary antibodies: HRP-GOAT Anti-mouse IgG was diluted with antibody dilution in the ratio of 1:10000, and 100 μL dilution was added to each well, and incubated at 37° C. for 45 min; • (8) Repeat step (2); • (9) Substrate addition: 100 μL TMB substrate reaction solution was added into each well of enzyme label, and incubated at 37° C. for 15 min in darkness. • (10) Termination reaction: 50 μL 2M H2SO4 was added into each well to terminate the reaction. • (11) Color development: the absorbance value of the sample in each well was detected at 450/630 nm.
In general terms: An ELISA detects its analyte on a solid surface through an enzyme-linked reagent.

In another test the test system is EPCAM. The test is described as above. The test is classed as in vivo. The settings on record: FIG. 16; compared with the EPCAM group and the EPCAM-PADRE group; mice immunized subcutaneously, 50 μg, Freund's adjuvant. As to the method: as §1, §2, §3, §4

B1: FRα-3 ? 8pPhe-PADRE: fusion antigen: FR-α linked via GPSL to helper epitope SEQ ID NO: 16 (protein)
chain: RIAWARTELLNVCMNAKHHKEKPGPEDKLHEQCRPWRKNACCSTNTSQEAHKDVSYLYRFNWNHCGEMAPACKRHFIQDTCLYECSPNLGPWIQQVDQSWRKERVLNVPLCKEDCEQWWEDCRTSYTCKSNWHKGWNWTSGFNKCAVGAACQPFHFYFPTPTVLCNEIWTHSYKVSNYSRGSGRCIQMWFDPAQGNPNEEVARFYAAAMSGPSLAKXVAAWXLKAAA
modifications: pPhe non-natural residue; (217)..(217) Xaa stands for 4-Nitrophenylalanine.; (222)..(222) Xaa stands for 4-Nitrophenylalanine.
As to B1, the antibody titers result with FR-α is recorded as “increased significantly”.

B2: EPCAM-3 ? 11pPhe-PADRE: fusion antigen: EPCAM linked via GPSL to helper epitope SEQ ID NO: 17 (protein)
chain: QEECVCENYKLAVNCFVNNNRQCQCTSVGAQNTVICSKLAAKCLVMKAEMNGSKLGRRAKPEGALQNNDGLYDPDCDESGLFKAKQCNGTSMCWCVNTAGVRRTDKDTEITCSERVRTYWIIIELKHKAREKPYDSKSLRTALQKEITTRYQLDPKFITSILYENNVITIDLVQNSSQKTQNDVDIADVAYYFEKDVKGESLFHSKKMDLTVNGEQLDLDPGQTLIYYVDEKAPEFSMQGLKGPSLAK[Phe(4-NO2)]VAAWTLK[Phe(4-NO2)]AA
On to B2, for which the antibody titers result with EPCAM is “increased significantly”.
